# The supplement of paper PMC9233669
# This sample holds only a part of the variants without activity.
# Legend:
# [1] = system: biotinyl-Phe-oxazolone; test: self-aminoacylation, catalytic enhancement (BFO) (fold over background); higher = more active; k-Seq, kA / k0A0; sequences stand for … in GGGAAUGGAUCCACAUCUACGAAUUC…UUCACUGCAGACUUGACGAAGCUG
# Procedure, shortened: (§1)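 Mutagenized RNA pools with a 21-nt variable region (0.43 μM) reacted with each biotinyl-aminoacyl-oxazolone at 2–1250 μM. Reactions ran in 50 μL HEPES/NaCl/KCl/MgCl2/CaCl2 buffer with 5% acetonitrile, pH 6.9–7.0, for 90 minutes at room temperature. Streptavidin-captured RNA was quantified by triplicate qPCR and Illumina sequencing, and per-sequence fraction reacted was fit to a pseudo-first-order model with 1000 bootstraps. Catalytic enhancement is median kA divided by the uncatalyzed rate, the low-activity peak of a bimodal Gaussian fit.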
# [2] = system: biotinyl-Ile-oxazolone; test: self-aminoacylation, catalytic enhancement (BIO) (fold over background); higher = more active; k-Seq, kA / k0A0; sequences stand for … in GGGAAUGGAUCCACAUCUACGAAUUC…UUCACUGCAGACUUGACGAAGCUG
# Procedure, shortened: as §1
# [3] = system: biotinyl-Met-oxazolone; test: self-aminoacylation, catalytic enhancement (BMO) (fold over background); higher = more active; k-Seq, kA / k0A0; sequences stand for … in GGGAAUGGAUCCACAUCUACGAAUUC…UUCACUGCAGACUUGACGAAGCUG
# Procedure, shortened: as §1
# [4] = system: biotinyl-Val-oxazolone; test: self-aminoacylation, catalytic enhancement (BVO) (fold over background); higher = more active; k-Seq, kA / k0A0; sequences stand for … in GGGAAUGGAUCCACAUCUACGAAUUC…UUCACUGCAGACUUGACGAAGCUG
# Procedure, shortened: as §1
# [5] = system: biotinyl-Leu-oxazolone; test: self-aminoacylation, catalytic enhancement (BLO) (fold over background); higher = more active; k-Seq, kA / k0A0; sequences stand for … in GGGAAUGGAUCCACAUCUACGAAUUC…UUCACUGCAGACUUGACGAAGCUG
# Procedure, shortened: as §1
# [6] = system: biotinyl-Trp-oxazolone; test: self-aminoacylation, catalytic enhancement (BWO) (fold over background); higher = more active; k-Seq, kA / k0A0; sequences stand for … in GGGAAUGGAUCCACAUCUACGAAUUC…UUCACUGCAGACUUGACGAAGCUG
# Procedure, shortened: as §1
Sequence,self-aminoacylation [1],self-aminoacylation [2],self-aminoacylation [3],self-aminoacylation [4],self-aminoacylation [5],self-aminoacylation [6]
AUUACCCUGGUCAACGAGUCA [Fam2.1 aminoacylation ribozyme variant],0.683,1.14,1.05,0.969,0.745,0.482
AUUACCCUGGUCAACGAGUGG [Fam2.1 aminoacylation ribozyme variant],2.19,1.04,1.49,1.09,1.38,1.78
AUUACCCUGGUCACAGAGUGA [Fam2.1 aminoacylation ribozyme variant],54.1,4.39,8.95,4.01,10.9,9.52
AUUACCCUGGUCACCGAAUGA [Fam2.1 aminoacylation ribozyme variant],0.595,0.992,1.22,1.15,1.31,0.91
AUUACCCUGGUCACCGAGUGA [Fam2.1 aminoacylation ribozyme variant],51.3,3.9,8.44,4.25,9.26,9.22
AUUACCCUGGUCACCGAGUGG [Fam2.1 aminoacylation ribozyme variant],7.88,1.57,2.6,2.08,3.56,3.23
AUUACCCUGGUCACCGAGUGU [Fam2.1 aminoacylation ribozyme variant],16.6,2.65,4.97,2.55,5.37,5.42
AUUACCCUGGUCACUGAGUGA [Fam2.1 aminoacylation ribozyme variant],10.5,2.75,3.91,2.75,3.91,4.62
AUUACCCUGGUCAGCAAGUGA [Fam2.1 aminoacylation ribozyme variant],9.67,2.95,4.16,2.61,4,4.8
AUUACCCUGGUCAGCCAGUGA [Fam2.1 aminoacylation ribozyme variant],46.3,5.41,9.13,5.21,10.6,11
AUUACCCUGGUCAGCGAGUGA [Fam2.1 aminoacylation ribozyme variant],16.6,2.92,4.42,3.01,4.71,5.36
AUUACCCUGGUCAGCGAGUGU [Fam2.1 aminoacylation ribozyme variant],15.4,2.49,3.7,2.41,3.85,4.47
AUUACCCUGGUCAUACAGUGA [Fam2.1 aminoacylation ribozyme variant],14.8,2.91,4.03,3.03,4.57,5.95
AUUACCCUGGUCAUAGCGUGA [Fam2.1 aminoacylation ribozyme variant],51.8,4.12,8.87,4.99,9.18,10.6
AUUACCCUGGUCAUAGUGUGA [Fam2.1 aminoacylation ribozyme variant],0.987,0.955,1.12,0.977,0.978,0.799
AUUACCCUGGUCAUCGAAUAA [Fam2.1 aminoacylation ribozyme variant],0.904,0.801,0.987,1.15,0.914,1.41
AUUACCCUGGUCAUCGACUGU [Fam2.1 aminoacylation ribozyme variant],0.377,0.846,0.726,0.804,0.82,0.723
AUUACCCUGGUCAUCGAGAGA [Fam2.1 aminoacylation ribozyme variant],3.1,1.28,1.8,1.36,1.72,1.46
AUUACCCUGGUCAUCGAGAGU [Fam2.1 aminoacylation ribozyme variant],1.79,0.803,0.991,1.02,0.822,0.568
AUUACCCUGGUCAUCGAGGCA [Fam2.1 aminoacylation ribozyme variant],1.25,1.29,1.9,1.59,1.97,0.847
AUUACCCUGGUCAUCGAGGGA [Fam2.1 aminoacylation ribozyme variant],9.56,2.71,5.93,2.99,5.66,5.46
AUUACCCUGGUCAUCGAGUCU [Fam2.1 aminoacylation ribozyme variant],0.56,0.697,0.784,0.901,0.712,0.846

Sequence,self-aminoacylation [1],self-aminoacylation [2],self-aminoacylation [3],self-aminoacylation [4],self-aminoacylation [5],self-aminoacylation [6]
AUUACCCUGGUCAUCGAGUUG [Fam2.1 aminoacylation ribozyme variant],3.62,1.27,2.14,1.75,2.04,1.47
AUUACCCUGGUCAUCGAUUGC [Fam2.1 aminoacylation ribozyme variant],0.81,1.15,0.757,0.926,0.84,0.663
AUUACCCUGGUCAUCGCCUGA [Fam2.1 aminoacylation ribozyme variant],14.2,2.72,2.48,3.15,3.64,3.69
AUUACCCUGGUCAUCGCGGGA [Fam2.1 aminoacylation ribozyme variant],29.3,5.03,5.35,4.56,7.42,3.4
AUUACCCUGGUCAUCGCGUGU [Fam2.1 aminoacylation ribozyme variant],51.7,4.14,8.31,4.84,9.06,8.25
AUUACCCUGGUCAUCGCGUUA [Fam2.1 aminoacylation ribozyme variant],12.7,2.27,2.71,2.32,2.73,4.12
AUUACCCUGGUCAUCGGGUGG [Fam2.1 aminoacylation ribozyme variant],395,22.6,68,26.3,80.6,81.4
AUUACCCUGGUCAUCGUGUGA [Fam2.1 aminoacylation ribozyme variant],17.2,1.58,3.01,1.85,3.08,3.41
AUUACCCUGGUCAUCUAAUGA [Fam2.1 aminoacylation ribozyme variant],0.963,0.967,1.06,0.917,0.908,0.586
AUUACCCUGGUCAUCUAGAGA [Fam2.1 aminoacylation ribozyme variant],0.684,1.04,0.865,1.03,0.887,0.6
AUUACCCUGGUCAUCUAGUGC [Fam2.1 aminoacylation ribozyme variant],1.27,0.835,1.06,1,1.08,0.68
AUUACCCUGGUCAUUCAGUGA [Fam2.1 aminoacylation ribozyme variant],14.1,3.33,4.7,3.16,5.37,6.28
AUUACCCUGGUCAUUGAGGGA [Fam2.1 aminoacylation ribozyme variant],1.13,1.23,1.25,1.51,1.25,2.06
AUUACCCUGGUCAUUGAGUGU [Fam2.1 aminoacylation ribozyme variant],18.9,2.42,4.42,2.78,4.72,5.6
AUUACCCUGGUCCACGAGUGA [Fam2.1 aminoacylation ribozyme variant],61.1,5.37,9.99,4.95,10.7,10.5
AUUACCCUGGUCCCCGAGUGA [Fam2.1 aminoacylation ribozyme variant],113,6.57,15.2,8.55,15.6,17.3
AUUACCCUGGUCCGCGAGUGA [Fam2.1 aminoacylation ribozyme variant],53.1,6.07,10.5,6.47,11.5,11.5
AUUACCCUGGUCGUCAAGUGA [Fam2.1 aminoacylation ribozyme variant],0.371,0.713,0.773,0.836,0.821,0.394
AUUACCCUGGUCGUCGAGUGC [Fam2.1 aminoacylation ribozyme variant],1.76,0.739,0.9,0.907,0.808,0.43
AUUACCCUGGUCGUCGCGUGA [Fam2.1 aminoacylation ribozyme variant],48.7,3.98,6.7,4.34,8.84,8.26
AUUACCCUGGUCGUCUAGUGA [Fam2.1 aminoacylation ribozyme variant],2.09,1.15,1.37,1.04,1.53,0.905
